Measured values taken from the supplement of paper PMC10126150.
± gives the standard deviation of the averaged measurements.

System: ATP
Experiment: switch fluorescence ratio, 500 uM ATP over buffer (Cy3 cluster intensity, sum of 5 cycles each) (fold (ratio)); higher = stronger signal-on switching upon ATP binding; sequences stand for … in TCGTCGGCAGCGTCAGATGTGTATAAGAGACAGTTTTTTTTTTTTTTTTTTTTTTTTT…TC
Conditions: aptamer strand: ATP DNA aptamer (quencher-CACCTGGGGGAGTATTGCGGAGGAAGG + anchor), 100 nM annealed; ATP concentration: 500 uM
Summary of the method: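 Values give the fluorescence ratio for each switch-domain sequence, averaged from per-cluster ratios of summed target-cycle to summed buffer-cycle Cy3 intensity. The Cy3-labelled switching-strand clusters sat on a modified Illumina MiSeq flow-cell, were annealed to 100 nM quencher-labelled ATP aptamer, and were imaged in selection buffer, then after 15 min with 500 uM ATP at 22 °C. Five cycles ran with NaOH stripping and re-annealing between them, and clusters outside 100-1000 RFU were excluded.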
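Note: ATP exposure 15 min at 22 °C before imaging.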

Sequence	switch fluorescence ratio
GATCCGGGC	1.05 ± 0.087
CATTTTGTGG	0.987 ± 0.012
GGGATGGGGA	1.02 ± 0.032
TGCATCTGAG	1 ± 0.021
TTGGAAGAGT	0.9941 ± 0.0083
ACACATAGGG	0.9985 ± 0.0084
ACAAGGTGTT	1.2 ± 0.022
AATCGCTTGG	0.9965 ± 0.006
AAAGGGGGAA	0.998 ± 0.026
TTATTGGAGG	0.9918 ± 0.0077
CGTAGTAGGA	1.04 ± 0.084
TTTACCGGGA	1.13 ± 0.15
GCGATTCGGG	0.978 ± 0.01
CTGGCGTATG	0.997 ± 0.036
GGGGGCTTTG	0.978 ± 0.023
GGTGTAGTTG	0.999 ± 0.037
TTCTGGATTA	0.994 ± 0.036
TCTTTGGGGT	1.01 ± 0.012
GGTGAAATTG	1 ± 0.015
TTGCTCTTTG	1.0058 ± 0.00073
TACGGGGGTT	0.994 ± 0.011
AGTTGAATGT	0.9647 ± 0.0063
CCTACGGGCC	2.16 ± 0.12
TAACGAGTCT	1.01 ± 0.029
AAAAATGTTG	1 ± 0.053

Sequence	switch fluorescence ratio
TATGTGATGT	0.981 ± 0.032
TGTGTAAGGG	1.02 ± 0.029
GTATACGGCA	1.01 ± 0.022
TGATGTAGCA	0.979 ± 0.033
ACAGTCTGTT	1.01 ± 0.048
AATCGCTAGC	1.02 ± 0.011
TTAGGAGGTT	0.965 ± 0.028
TAAGCGGGGG	0.999 ± 0.017
GTATTTCGGT	0.972 ± 0.031
AAGCATTTAC	3.118 ± 0.021
GCGAGTTCTA	0.963 ± 0.025
CGGGAATTTT	1 ± 0.013
GTGGATTTTC	1 ± 0.062
GGAGGTGGTT	0.981 ± 0.018
GTATTCGCAA	4.73 ± 0.9
ATGAGCTGAG	1.01 ± 0.035
TTTAAAGGCC	0.9682 ± 0.00099
AATCCCGGGG	1.19 ± 0.21
ATTCCTAGTG	1.03 ± 0.035
CAGTTCATTA	0.9976 ± 0.0031
GTAGGGGGGA	0.987 ± 0.04
ATTTTGTCTT	1.02 ± 0.019
GTTGGGAGTC	1.01 ± 0.012
ACCAAGCTTT	1.04 ± 0.016
GCTGGTAGTT	0.995 ± 0.028

Sequence	switch fluorescence ratio
AGAGGGCGGT	1.02 ± 0.024
GTTGCTAGGT	0.9984 ± 0.0044
AAATGACGGG	1.005 ± 0.0076
TTCAGAAAGA	0.998 ± 0.023
GGGGGGCGGG	1.03 ± 0.051
CGTGCTGGAC	1.091 ± 0.0065
ATAATTTAGT	0.982 ± 0.028
GGTCGAGCTA	0.996 ± 0.042
GAAATCGGAT	0.972 ± 0.016
GGGGGTTTCG	0.999 ± 0.036
GCCTGGTTGT	1.02 ± 0.013
ACCCATGCTT	1.06 ± 0.013
TCTGACGTAC	2.57 ± 0.19
GGGATTATGT	0.97 ± 0.015
GTGGGAAAGG	0.9715 ± 0.0057
CTCTAATATC	1.47 ± 0.091
AGGATGTTAT	1 ± 0.016
TGGAATGCGG	0.99792 ± 0.00061
TGTGCTTTGT	1 ± 0.016
GTTGTGGGAA	0.98266 ± 0.00039
TGGAAAACCG	1.08 ± 0.022
TAAATCGTTG	0.9906 ± 0.005
ATGAAATGTT	1.011 ± 0.0053
ACGCGGTCCA	0.988 ± 0.019
TCGTGTGACT	0.98961 ± 8.7e-05

Sequence	switch fluorescence ratio
TAATTGCCTT	1.02 ± 0.017
GGAAAATTTT	0.994 ± 0.033
GGGATGACGG	0.975 ± 0.036
GATGGTAGTT	1.012 ± 0.0024
GTGGGAACAG	0.979 ± 0.011
TTCACCACTT	1.01 ± 0.025
GGTACTCGTA	1.01 ± 0.039
CGCGAATTTG	1.02 ± 0.021
GGGGTTTGTT	0.992 ± 0.034
TAATTGGAGG	0.9805 ± 0.0051
GGTGCAATGA	1.956 ± 0.0021
GGTCCAAAAG	1.008 ± 0.0075
CTATTATCTG	1.01 ± 0.024
ACGGACGTTC	1.15 ± 0.015
CGAGATTGGT	0.973 ± 0.016
GTTAGGCCAG	0.986 ± 0.041
CTAGTGGTGA	0.972 ± 0.015
ACTTGGTCGT	1.04 ± 0.012
GGTTTTCTCA	1.002 ± 0.008
GGGATCTGAA	0.969 ± 0.026
TCATGCGGTG	0.967 ± 0.01
AGTAGGGTGT	0.968 ± 0.029
CAAAAATTTT	0.986 ± 0.026
ATTAGGTTCT	0.97 ± 0.051
TATCGAAGCG	0.969 ± 0.058

Sequence	switch fluorescence ratio
GTGGTTTATA	1.01 ± 0.021
TTCCTAAAAG	0.979 ± 0.011
AGTTGTGCAG	1.02 ± 0.062
GCGTTGGCCA	1.01 ± 0.016
TTGGGGAAAG	0.986 ± 0.038
TTATGAAATT	1.01 ± 0.04
TTTACTTAGG	1.04 ± 0.023
CTTGACTGTG	1.03 ± 0.011
CAATTCAGAT	0.952 ± 0.028
TAATGTTGGT	1.025 ± 0.0014
TTATTGGGTT	0.995 ± 0.017
CGGGGGGTGC	1.01 ± 0.082
TTATGATAGC	0.965 ± 0.044
AATTTAGGAT	0.989 ± 0.027
CGGTGGGATT	0.979 ± 0.019
AGGAATTGCT	1.03 ± 0.018
TGAGGGAGGC	1.06 ± 0.06
GGCCATCCAG	1.01 ± 0.036
TGGGAATTCC	1 ± 0.011
AGGATGGTTT	1.002 ± 0.0077
CGTGGCGGAT	0.9709 ± 0.0092
GGATGTGTAA	1.007 ± 0.007
TGCATTACCC	1.25 ± 0.41
CAGGGGCGAC	1.02 ± 0.049
CCGGGAAATT	1.22 ± 0.36

Sequence	switch fluorescence ratio
TTAGTCCTTT	1.03 ± 0.058
CTCTTTACGG	1 ± 0.04
TTTTCAACCA	1.06 ± 0.043
TGATATATGG	0.9872 ± 0.0081
ATTTTAAAGG	0.977 ± 0.027
GGTTCCCACT	0.9919 ± 0.0045
ACGGTTTCTG	1.04 ± 0.029
AATGTGCTGG	0.993 ± 0.018
TCAACGGTCT	0.9955 ± 0.0048
TTCAGCGGGA	0.992 ± 0.019
AAAATCTTGT	1.04 ± 0.0066
TTTTGTTAGG	0.98 ± 0.01
AAGCGTGCCT	1.01 ± 0.018
TCAGAGAAGA	0.962 ± 0.023
GGGTGAGGTT	0.997 ± 0.021
GTTTGTAAGT	1.01 ± 0.045
GGAAGTATTA	0.966 ± 0.017
CCAAAACAGC	1.028 ± 0.0022
GCATAAATAG	1.02 ± 0.018
CCTTGGACGG	1.03 ± 0.02
TTAGGTACGA	1.05 ± 0.011
TTTGTATTAC	1.32 ± 0.38
AAAGGTTAAG	0.991 ± 0.015
CGTCGTAGGG	0.985 ± 0.03
TTGGTACTGT	1.02 ± 0.014

Sequence	switch fluorescence ratio
CTTGCGGGCG	0.982 ± 0.012
ACGGTAACTC	1.27 ± 0.03
AGGGAGTTTG	0.983 ± 0.021
TAGCTTTAAC	1.0888 ± 0.00092
GGGGTATCTT	1.04 ± 0.017
ATGACCTGGG	0.9769 ± 0.0049
TACATCCGAG	1.08 ± 0.029
GATTCTTGAG	1.01 ± 0.032
ATCACTGGGC	1.1 ± 0.092
GGAGTGCCGT	1 ± 0.093
CACTCTTGAT	1.01 ± 0.019
CCTTTTGGGG	1.03 ± 0.061
GTGGTATCCG	0.973 ± 0.058
TGATTTGTTT	1 ± 0.04
TGTCGGGGGG	1.01 ± 0.028
CGGGGTATTG	0.999 ± 0.039
CGATGTGTGC	1.17 ± 0.0054
GAGGTGTGAG	1.03 ± 0.018
CTAAATTCGT	0.987 ± 0.08
TGTGATAGGT	1 ± 0.028
GGGGGGTAAC	1 ± 0.019
GTTACAATGG	0.991 ± 0.038
CGAGGGTACG	1 ± 0.032
TTTTTATAGG	1.008 ± 0.0041
TGTAGGGGTA	0.98 ± 0.045

Sequence	switch fluorescence ratio
TTTATGCACT	1.05 ± 0.051
ACGGTACGGA	1.21 ± 0.05
ACAATGTCGG	0.998 ± 0.011
GCTTAAACGG	1.02 ± 0.073
TCTGGATCA	1.0079 ± 0.00014
TTGTAAATT	1.02 ± 0.043
AAGTTGTGTT	0.996 ± 0.033
CAATGTGGGA	1.01 ± 0.021
CGTGTGTTGA	1.01 ± 0.013
CCAGCCCGGG	1.008 ± 0.0051
TTGGGGGACA	1.01 ± 0.014
TATAGACAGG	0.989 ± 0.057
TTTATTGGTT	1.07 ± 0.1
GCCGTGTGAT	0.986 ± 0.0083
GTTTATGGTG	0.999 ± 0.025
TGGTAAAGTA	0.991 ± 0.02
GTCTAAGGAT	0.995 ± 0.042
ACAGGGGTCT	1.06 ± 0.024
GAAAAATGAC	0.999 ± 0.021
CGTGGGATAA	1.01 ± 0.023
GGTAAATTTT	1 ± 0.018
GGGGGTCTTA	0.9974 ± 0.0063
GACGAGGGGC	1.18 ± 0.031
GGTGAAGCCT	0.991 ± 0.047
AGGATATGGC	1.09 ± 0.12
